The values below come from patent US20080220446A1 (published 2008).

Ends that are not written are not given here.

The target in assay [1] is T1, recombinant human β2-glycoprotein I (insect cells) (human, UniProt P02749 20-345).
T1 construct: also called recombinant β2GPI; rβ2GPI
T1 sequence (looked up): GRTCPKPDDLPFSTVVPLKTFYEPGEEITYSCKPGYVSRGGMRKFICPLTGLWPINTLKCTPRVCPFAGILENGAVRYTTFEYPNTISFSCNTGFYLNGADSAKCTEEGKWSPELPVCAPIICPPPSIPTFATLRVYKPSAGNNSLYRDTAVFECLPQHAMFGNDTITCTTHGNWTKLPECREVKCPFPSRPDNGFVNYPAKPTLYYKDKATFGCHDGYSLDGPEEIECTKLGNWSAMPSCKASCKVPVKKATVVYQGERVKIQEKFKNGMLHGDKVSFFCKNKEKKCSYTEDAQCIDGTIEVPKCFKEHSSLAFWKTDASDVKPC
Kind of assay: SPR (Biacore), tPA F immobilized on CM5 chip. The procedure: (§1) A standardized amine coupling procedure was used to couple proteins with F domains to a CM5 chip (Biacore AB, Uppsala, Sweden). First, the dextran surface of the chips was activated by a 35 μl injection with a 1:1 mixture of 0.1 M N-hydroxysuccinimide (NHS) and 0.4 M N-ethyl-N′-(dimethylaminopropyl)carbodiimide (EDC) at a flow rate of 5 μl min.⁻¹. Then, the proteins were covalently coupled to the activated dextran surface. Remaining activated groups in each of the four flow channels were blocked by injection of 35 μl of 1 M ethanolamine hydrochloride pH 8.5. EDC, NHS and ethanolamine hydrochloride were obtained from Biacore. […] The flow rate was 10 μl min.⁻¹, the injection time was 120″. The running buffer during immobilization was 10 mM HEPES pH 7.4, 140 mM NaCl. Buffers were filtrated on a 0.22 μm filter (white GSWP, 47 mm, Millipore) and degassed at room temperature. For subsequent binding experiments, the running buffer was 10 mM HEPES pH 7.4, 140 mM NaCl, 1.5 mM CaCl₂, 10 mM εACA, 0.005% Tween-20. […] After each injection of protein, the chip was regenerated with 0.1 M H₃PO₄ pH 1.0.
A general note: In SPR one partner is held on a chip, and binding of the other changes the refractive index at the surface.

Assay [2] has as its target abciximab (ReoPro). The assay can be described thus: cell-based or functional assay.
Assay [3] deals with T2, recombinant human Zn2+-chelated insulin (Monotard) (human, UniProt P01308 90-110; P01308 25-54). Kind of assay: cell-based or functional assay.
The target of assay [4] is T3, rapid acting human insulin analogue (NovoRapid Flexpen) (human, UniProt P01308 90-110; P01308 25-54). Kind of assay: cell-based or functional assay.
Assay [5] deals with Etanercept (Enbrel), native. Kind of assay: cell-based or functional assay.
Assay [6] has as its target Infliximab (Remicade), human-murine chimeric monoclonal antibody. The assay can be described thus: cell-based or functional assay.
The target in assay [7] is T4, human coagulation factor VIII (FVIII) (Aafact) (human, UniProt P00451 20-2351).
T4 chain 1: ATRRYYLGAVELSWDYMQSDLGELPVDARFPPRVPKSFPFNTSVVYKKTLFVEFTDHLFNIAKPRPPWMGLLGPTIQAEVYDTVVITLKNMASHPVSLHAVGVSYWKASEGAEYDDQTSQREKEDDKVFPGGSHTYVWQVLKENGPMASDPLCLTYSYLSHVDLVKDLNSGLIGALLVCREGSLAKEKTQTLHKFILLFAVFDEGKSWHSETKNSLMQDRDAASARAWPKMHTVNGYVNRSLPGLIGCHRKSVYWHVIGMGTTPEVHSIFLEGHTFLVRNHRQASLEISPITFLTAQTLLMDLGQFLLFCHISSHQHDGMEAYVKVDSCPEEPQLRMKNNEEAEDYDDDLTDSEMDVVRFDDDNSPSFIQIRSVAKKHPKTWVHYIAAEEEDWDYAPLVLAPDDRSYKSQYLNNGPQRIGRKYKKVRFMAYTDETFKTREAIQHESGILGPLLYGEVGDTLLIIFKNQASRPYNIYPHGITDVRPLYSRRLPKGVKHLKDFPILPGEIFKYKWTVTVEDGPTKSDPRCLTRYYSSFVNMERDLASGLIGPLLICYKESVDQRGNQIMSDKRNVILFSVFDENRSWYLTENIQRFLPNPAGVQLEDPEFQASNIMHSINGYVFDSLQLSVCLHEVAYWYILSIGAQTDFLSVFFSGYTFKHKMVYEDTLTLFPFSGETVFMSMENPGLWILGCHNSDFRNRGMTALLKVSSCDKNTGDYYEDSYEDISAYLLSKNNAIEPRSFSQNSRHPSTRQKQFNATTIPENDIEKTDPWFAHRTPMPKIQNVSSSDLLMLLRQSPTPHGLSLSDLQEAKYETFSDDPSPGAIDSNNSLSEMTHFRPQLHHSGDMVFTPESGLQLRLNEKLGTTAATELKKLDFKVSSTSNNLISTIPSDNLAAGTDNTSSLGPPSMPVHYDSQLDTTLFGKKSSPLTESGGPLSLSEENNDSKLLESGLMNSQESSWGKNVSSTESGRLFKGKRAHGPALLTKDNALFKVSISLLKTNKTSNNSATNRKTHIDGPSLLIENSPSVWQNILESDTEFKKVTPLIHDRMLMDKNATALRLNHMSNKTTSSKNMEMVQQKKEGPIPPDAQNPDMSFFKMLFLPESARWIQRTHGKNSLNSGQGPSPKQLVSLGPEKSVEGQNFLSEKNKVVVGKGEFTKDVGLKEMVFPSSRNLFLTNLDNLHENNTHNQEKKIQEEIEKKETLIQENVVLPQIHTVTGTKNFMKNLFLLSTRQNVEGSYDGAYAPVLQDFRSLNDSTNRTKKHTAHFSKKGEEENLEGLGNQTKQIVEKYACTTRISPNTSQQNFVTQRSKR
T4 chain 2: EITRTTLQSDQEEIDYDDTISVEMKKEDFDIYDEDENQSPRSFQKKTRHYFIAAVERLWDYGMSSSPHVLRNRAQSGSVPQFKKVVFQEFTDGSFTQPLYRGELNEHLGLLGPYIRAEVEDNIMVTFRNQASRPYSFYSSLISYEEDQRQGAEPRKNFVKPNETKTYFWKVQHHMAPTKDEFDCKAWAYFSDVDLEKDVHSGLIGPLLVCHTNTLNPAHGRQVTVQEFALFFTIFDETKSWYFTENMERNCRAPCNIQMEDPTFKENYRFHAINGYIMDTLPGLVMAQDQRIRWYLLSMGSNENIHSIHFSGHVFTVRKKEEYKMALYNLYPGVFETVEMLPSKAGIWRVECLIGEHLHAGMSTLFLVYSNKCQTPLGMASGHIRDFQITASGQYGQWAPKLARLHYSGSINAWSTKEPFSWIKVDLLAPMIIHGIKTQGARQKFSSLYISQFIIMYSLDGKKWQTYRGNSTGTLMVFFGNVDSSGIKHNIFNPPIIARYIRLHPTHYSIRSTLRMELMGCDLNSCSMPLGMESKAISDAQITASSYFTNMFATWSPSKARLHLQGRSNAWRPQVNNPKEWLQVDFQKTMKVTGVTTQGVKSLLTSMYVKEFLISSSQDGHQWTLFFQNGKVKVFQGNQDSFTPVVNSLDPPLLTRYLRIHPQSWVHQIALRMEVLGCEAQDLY
The assay can be described thus: ELISA, therapeutic coated on Nunc Immobilizer plate, concentration series of tPA, one-site binding fit. The procedure: (§2) Plates were washed twice with Tris buffered saline pH 7.2 containing 0.1% Tween20 (TBST) and blocked with PBS containing 1% Tween20 for 1 hour at room temperature. […] Plates were washed five times with TBST and incubated with peroxidase labeled anti-mouse immunoglobulins (RAMPO; DAKOCytomation, Glostrup, Denmark) diluted 1:3000 in PBST for 30 minutes at room temperature. Plates were washed five times with PBS 0.1% Tween20, and stained with 100 μL/well of tetramethyl-benzidine (TMB) substrate (Biosource Europe, Nivelles, Belgium). The reaction was terminated with 50 μL/well of 2 M H₂SO₄ and substrate conversion was read at 450 nm on a Spectramax340 microplate reader. Curves were fitted with a one-site binding model (GraphPad Prism version 4.02 for Windows, Graphpad Software, Calif., USA) from which Kd and Bmax were determined.
(In general: An ELISA detects its analyte on a solid surface through an enzyme-linked reagent.)

The target of assay [8] is abciximab (ReoPro). Described as above. The procedure: as §2
Assay [9] concerns the target T5, human albumin (Cealb, Sanquin-CLB) (human, UniProt P02768 25-609).
T5 construct: also called CeaIb
The description is as above. The procedure:
as §2

Assay [10] concerns the target T2, recombinant human Zn2+-chelated insulin …. Described as above. The procedure:
as §2

In assay [11] the target is T3, rapid acting human insulin analogue …. The assay is described as above. The procedure: as §2
The target in assay [12] is T1, recombinant human β2-glycoprotein I …. The assay can be described thus: SPR (Biacore), HGFA F immobilized on CM5 chip. The procedure: as §1

T2 sequence (P01308 90-110 limits assumed, chain 1 of 2): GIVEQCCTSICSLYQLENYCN
T2 sequence (P01308 25-54 limits assumed, chain 2 of 2): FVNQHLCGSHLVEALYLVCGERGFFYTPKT
T3 sequence (P01308 other isoform, or with tags, fused parts or gaps limits assumed, chain 2 of 2): as the sequence (P01308 25-54 limits assumed, chain 2 of 2) above, with P28D counted along it
abciximab (ReoPro), sequence (VH, as listed by the source, chain 1 of 2): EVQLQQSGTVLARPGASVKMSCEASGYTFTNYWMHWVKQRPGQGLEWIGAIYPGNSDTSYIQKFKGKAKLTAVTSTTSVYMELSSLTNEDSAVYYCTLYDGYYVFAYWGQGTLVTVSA
abciximab (ReoPro), sequence (VL, as listed by the source, chain 2 of 2): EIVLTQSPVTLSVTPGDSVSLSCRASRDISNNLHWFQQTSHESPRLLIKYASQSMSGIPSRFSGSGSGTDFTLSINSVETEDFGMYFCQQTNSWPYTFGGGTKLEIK

B1: chemically synthesized tPA F domain (other, human)
chain: SYQVICRDEKTQMIYQQHQSWLRPVLRSNRVEYCWCNSGRAQCHSVPVKSK
modifications: ends and bridges not checked; also: C-terminal Lys acetylated or biotinylated, not given here which
notes: domain: F domain; Made by native chemical ligation; immobilized on the second Biacore chip
As for B1, the binding result in assay [1] was “no binding (tested: 0-300 nM)”.

B2: tissue-type plasminogen activator (tPA) (enzyme, human, UniProt P00750 36-562, looked up)
chain: SYQVICRDEKTQMIYQQHQSWLRPVLRSNRVEYCWCNSGRAQCHSVPVKSCSEPRCFNGGTCQQALYFSDFVCQCPEGFAGKCCEIDTRATCYEDQGISYRGTWSTAESGAECTNWNSSALAQKPYSGRRPDAIRLGLGNHNYCRNPDRDSKPWCYVFKAGKYSSEFCSTPACSEGNSDCYFGNGSAYRGTHSLTESGASCLPWNSMILIGKVYTAQNPSAQALGLGKHNYCRNPDGDAKPWCHVLKNRRLTWEYCDVPSCSTCGLRQYSQPQFRIKGGLFADIASHPWQAAIFAKHRRSPGERFLCGGILISSCWILSAAHCFQERFPPHHLTVILGRTYRVVPGEEEQKFEVEKYIVHKEFDDDTYDNDIALLQLKSDSSRCAQESSVVRTVCLPPADLQLPDWTECELSGYGKHEALSPFYSERLKEAHVRLYPSSRCTSQHLLNRTVTDNMLCAGDTRSGGPQANLHDACQGDSGGPLVCLNDGRMTLVGIISWGLGCGQKDVPGVYTKVTNYLDWIRDNMRP
notes: Full-length commercial tPA; also called Actilyse; Alteplase
On to B2, for which the “tPA activation, Max. Activation (%) (tPA-dependent plasminogen activation, % of standardized positive control)” value with abciximab (ReoPro) [2] stood at 0%; in [3], 17.4%; in [4], 70.9%; in [5] it was 0%; in [6], 0%. Further, the Bmax in assay [7] worked out at 0.54 OD450 nm; with abciximab (ReoPro) [8] it was 0.533 OD450 nm; in [9], 1.23 OD450 nm; in assay [10], 0.756 OD450 nm; in assay [11], 3.62 OD450 nm.

B3: chemically synthesized HGFA F domain (other)
chain: EKCFDETRYEYLEGGDRWARVRQGHVEQCECFGGRTWCEGTK
modifications: carboxy-terminal acetylated lysine residue
notes: domain: F domain; Immobilized on the second Biacore chip
B3: the binding result in [12] is recorded as “no binding (tested: 0-300 nM)”.
